According to US5767078A, “Agonist peptide dimers” (priority 1995, dated 1998):
pEC50, pIC50: −log10 of the molar value. Like-named read-outs stand apart in the source and are kept apart here. Bridge positions count the residues as written; N and C are the ends. Ends that are not written are not given here. Peptide text beside a SMILES is read from it.

How the values were obtained:
[1] = target: T1, truncated human EPO receptor (Homo sapiens, UniProt P19235); assay: EPO dependent cell proliferation assay, FDC-P1/trER cells; format: cell-based; settings: for EC50 / change in potency of dimer versus parent monomer (in parentheses), truncated human receptor: FDC-P1/trER; for EC50: [3H]thymidine incorporation, amount giving half of maximal activity obtained with EPO; for change in potency of dimer versus parent monomer (in parentheses), truncated human receptor: ratio of ED50 values
T1 construct: expressed in transfected cells; host or cells: FDC-P1/trER cells (murine FDC-P1 derived)
T1 sequence (P19235 25-468 limits assumed): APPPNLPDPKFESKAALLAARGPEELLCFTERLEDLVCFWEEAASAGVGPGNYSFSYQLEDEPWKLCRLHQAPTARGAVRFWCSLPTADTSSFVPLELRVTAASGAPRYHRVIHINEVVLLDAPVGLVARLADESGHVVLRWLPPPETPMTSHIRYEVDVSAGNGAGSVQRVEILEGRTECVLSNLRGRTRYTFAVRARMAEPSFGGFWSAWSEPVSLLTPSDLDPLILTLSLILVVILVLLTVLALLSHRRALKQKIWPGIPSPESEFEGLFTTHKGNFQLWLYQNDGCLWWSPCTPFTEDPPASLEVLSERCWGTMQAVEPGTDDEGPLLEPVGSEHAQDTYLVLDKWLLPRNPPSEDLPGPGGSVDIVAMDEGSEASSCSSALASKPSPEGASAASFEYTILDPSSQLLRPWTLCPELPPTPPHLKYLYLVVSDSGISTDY
Method: (§1) After 24 hours, the cells were counted, resuspended at 800,000 cells/ml and dispensed at 40,000 cells/well. Stock solutions of the peptide dimer (5 mM in PBS) and peptide (10 mM in DMSO) were prepared and dispensed in triplicate to final concentrations of 1×10^-10 M through 1×10^-5 M and adjusted to a final volume of 0.2 ml. […] After a 42 hr incubation at 37° C. (ca. 2 cell doublings) 1 μCi/well of [^3 H] thymidine was added and the incubation continued for 6 hr at which time the cells were harvested and counted to assess [^3 H]thymidine incorporation as a measure of cell proliferation.

murine EPO receptor = target: T2, murine EPO receptor (Mus musculus, UniProt P14753); assay: EPO dependent cell proliferation assay, FDC-P1/ER cells; format: cell-based; settings: for EPO-ED50 murine receptor / change in potency of dimer versus parent monomer (in parentheses), murine receptor: FDC-P1/ER; for EPO-ED50 murine receptor: [3H]thymidine incorporation, amount giving half of maximal activity obtained with EPO; for change in potency of dimer versus parent monomer (in parentheses), murine receptor: ratio of ED50 values
T2 construct: expressed in transfected cells; host or cells: FDC-P1/ER cells
T2 sequence (P14753 25-507): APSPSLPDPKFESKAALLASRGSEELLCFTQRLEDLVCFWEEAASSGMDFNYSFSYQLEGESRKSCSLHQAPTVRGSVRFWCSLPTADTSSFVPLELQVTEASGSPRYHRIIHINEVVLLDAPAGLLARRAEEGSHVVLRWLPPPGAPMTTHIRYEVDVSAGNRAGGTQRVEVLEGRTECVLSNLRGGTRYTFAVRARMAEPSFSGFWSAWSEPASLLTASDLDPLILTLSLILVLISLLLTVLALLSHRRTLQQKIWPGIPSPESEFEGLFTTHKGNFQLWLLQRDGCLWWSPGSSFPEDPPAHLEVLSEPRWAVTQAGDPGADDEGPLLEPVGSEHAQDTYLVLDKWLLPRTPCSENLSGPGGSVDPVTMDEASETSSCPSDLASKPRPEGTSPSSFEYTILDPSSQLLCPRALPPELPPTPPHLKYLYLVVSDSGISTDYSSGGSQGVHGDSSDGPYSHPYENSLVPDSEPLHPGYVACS
Method: as §1

[2] = target: T3, extracellular domain of the human erythropoietin receptor (EPO binding protein, EBP) (Homo sapiens, UniProt P19235); assay: Immobilized EBP based [125I]EPO competition binding assay; settings: for Relative Binding (binding relative to Seq. I. D. No. 8): IC50 in [125I]EPO competition on EBP beads, relative to Seq. I. D. No. 8 (IC50 5 μM)
T3 construct: made in house; host or cells: E. coli
T3 sequence (P19235 25-250 limits assumed): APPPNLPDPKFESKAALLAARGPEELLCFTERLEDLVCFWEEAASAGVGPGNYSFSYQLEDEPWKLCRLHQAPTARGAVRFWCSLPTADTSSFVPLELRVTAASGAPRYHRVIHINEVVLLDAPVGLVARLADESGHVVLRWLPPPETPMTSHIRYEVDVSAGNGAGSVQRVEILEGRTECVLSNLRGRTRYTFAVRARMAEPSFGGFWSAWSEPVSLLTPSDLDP
Method: The iodoacetyl activation chemistry of Sufolink beads (Pierce Chemical Co, Rockford, Ill.) is specific for free thiols and assures that the linkage is not easily reversible. EBP-Sulfolink beads were made as follows: SulfoLink gel suspension (10 ml) was mixed with of coupling buffer (40 ml: 50 mM Tris, pH 8.3, 5 mM EDTA) and the gel was allowed to settle. […] The mixture was rocked gently for 30 minutes at room temperature and the beads were allowed to settle for 1 hour at room temperature. The supernatant was removed and retained. The beads were washed twice with 20 ml of coupling buffer. The washes were recovered as well. The beads were then treated with 20 ml of 0.05M cysteine for 30 minutes at room temperature to block unbound sites. Finally, the beads were washed with 50 ml of 1M NaCl, then with 30 ml of PBS, and resuspended in 20 ml of PBS and stored at 4° C. The amount of EBP which was covalently bound to the beads was determined by comparing the OD280 of the original EBP solution to the total OD280 recovered in the reaction supernatant and the two 20 ml washes.
Competitive binding analysis assays of candidate peptides and dimer peptides were performed as outlined below. Individual peptides were dissolved in DMSO to prepare a stock solution […]. Dimer peptides were contained within PBS at a concentration of 5 mM.
Initial assay points with no added peptide were included in each assay to determine total binding. Binding mixtures were incubated overnight at room temperature with gentle rocking. The beads were then collected using Micro-columns (Isolab, Inc.) and washed with 3 mL of wash buffer. The columns containing the washed beads were placed in 12×75 mm glass tubes and bound radioactivity levels determined in a gamma counter.

[3] = read-out: EPO-ED50 truncated human receptor

| Compound | Relative Binding (binding relative to Seq. I. D. No. 8) [2] | EPO-ED50 murine receptor (murine EPO receptor) [nM] | EC50 [1, 3] [nM] | also measured |
| --- | --- | --- | --- | --- |
| CC(C)C[C@@H]1NC(=O)[C@@H]2CCCN2C(=O)CNC(=O)[C@H](Cc2ccccc2)NC(=O)[C@H](Cc2c[nH]cn2)NC(=O)[C@@H](NC(=O)[C@H](CO)NC(=O)[C@H](Cc2ccc(O)cc2)NC(=O)[C@@H](NC(=O)CNC(=O)CN)[C@@H](C)O)CSSC[C@@H](C(=O)N[C@@H](CCCCN)C(=O)N2CCC[C@H]2C(=O)N[C@@H](CCC(N)=O)C(=O)NCC(=O)NCC(N)=O)NC(=O)[C@H](C(C)C)NC(=O)[C@H](Cc2c[nH]c3ccccc23)NC(=O)[C@H]([C@@H](C)O)NC1=O [Seq. I. D. No. 8] (H-GGTYSCHFGPLTWVCKPQGG-NH2; disulfide 6-15) | – | – | – | pEC50 [1, 3]: 7.05 |
| CC(C)C[C@@H]1NC(=O)[C@@H]2CCCN2C(=O)CNC(=O)[C@H](Cc2ccccc2)NC(=O)[C@H](Cc2c[nH]cn2)NC(=O)[C@@H](NC(=O)[C@@H](N)CO)CSSC[C@@H](C(=O)N[C@@H](CCCCN)C(N)=O)NC(=O)[C@H](C(C)C)NC(=O)[C@H](Cc2c[nH]c3ccccc23)NC(=O)[C@H]([C@@H](C)O)NC1=O [peptide (SEQ ID NO: 18)] (H-SCHFGPLTWVCK-NH2; disulfide 2-11) | – | – | – | activity in the in vitro cell proliferation assay (in words) (murine EPO receptor; cell line not given): inactive |
| Ac-GGTYSCHFGPLTWVCKPQGG (Ac-GGTYSCHFGPLTWVCKPQGG-NH2; disulfide 6-15 (inferred)) [Seq. I. D. No. 20] | 4 | 30 | 60 | – |
| GGLYACHMGPMTWVCQPLRG [Seq. I. D. No. 14] | – | 100 | 80 | – |
| SAP2/Seq. I. D. No. 8 covalent dimer #1: PEG (SPA2, MW ca. 3400) dimer of peptide GGTYSCHFGPLTWVCKPQGG, lot #1, Example 2 (GGTYSCHFGPLTWVCKPQGG-NH2; disulfide 6-15 (inferred); not fully specified) | 4 | 10 | 1.5 | pIC50 ([2]; concentration reducing [125I]EPO binding to EBP beads by 50%, 0.5 nM [125I]EPO): 4.70; increase in potency versus parent peptide, murine receptor line (murine EPO receptor): 10 fold; change in potency of dimer versus parent monomer (in parentheses), murine receptor (murine EPO receptor): 10 X; ED50, cell line containing the murine EPO receptor (murine EPO receptor; text of Example 11): 10 nM; increase in potency versus parent peptide, human receptor line [1]: ~60 fold; change in potency of dimer versus parent monomer (in parentheses), truncated human receptor [1]: 60 X; ED50, cell line containing the human EPO receptor ([1]; text of Example 11): 1.5 nM |
| SAP2/Seq. I. D. No. 8 covalent dimer #2: PEG (SPA2, MW ca. 3400) dimer of peptide GGTYSCHFGPLTWVCKPQGG, lot #2, Example 3 (GGTYSCHFGPLTWVCKPQGG-NH2; disulfide 6-15 (inferred); not fully specified) | 3 | 10 | 2 | increase in potency versus parent peptide, murine receptor line (murine EPO receptor): 10 fold; change in potency of dimer versus parent monomer (in parentheses), murine receptor (murine EPO receptor): 10 X; increase in potency versus parent peptide, human receptor line [1]: 45 fold; change in potency of dimer versus parent monomer (in parentheses), truncated human receptor [1]: 45 X |
| SAP2/Seq. I. D. No. 13 covalent dimer: PEG (SPA2) dimer of peptide GGTYSCHFGPLTWVCKPQ, Example 4 (GGTYSCHFGPLTWVCKPQ-NH2; disulfide 6-15 (inferred); also: PEG (SPA2) covalent dimer) | – | – | 2 | change in potency of dimer versus parent monomer (in parentheses), truncated human receptor [1]: 10 X |
| SAP2/Seq. I. D. No. 20 covalent dimer: PEG (SPA2) dimer of peptide Ac-GGTYSCHFGPLTWVCKPQGG, Example 5 (Ac-GGTYSCHFGPLTWVCKPQGG-NH2; disulfide 6-15 (inferred); also: PEG (SPA2) covalent dimer) | 12 | 200 | 50 | change in potency of dimer versus parent monomer (in parentheses), murine receptor (murine EPO receptor): -7 X |
| dimeric peptide: PEG (SPA2) dimer of peptide SCHFGPLTWVCK (SEQ ID NO: 18), Example 7 (SCHFGPLTWVCK-NH2; disulfide 2-11 (inferred); also: PEG (SPA2) covalent dimer) | – | – | – | proliferation (cpm) relative to background ([1]; 10^-5 M, human EPO receptor cell line, FIG. 8): twice as many cpm as background |

More lines, main results first:

| Relative Binding (binding relative to Seq. I. D. No. 8) [2] | EPO-ED50 murine receptor (murine EPO receptor) [nM] | EC50 [1, 3] [nM] | Compound | also measured |
| --- | --- | --- | --- | --- |
| 60 | 2000 | 100 | mPEG/Seq. I. D. No. 8, peak #1: mono-PEG conjugate of peptide SEQ ID NO: 8 with m-SPA-PEG (MW ca. 5000), one PEG coupled; control (GGTYSCHFGPLTWVCKPQGG-NH2; disulfide 6-15 (inferred); not fully specified; also: one mPEG 5000 (m-SPA-PEG) conjugated, site not given here) [reference compound] | – |
| > 40 | 1000 | 400 | mPEG/Seq. I. D. No. 8, peak #2: conjugate of peptide SEQ ID NO: 8 with m-SPA-PEG (MW ca. 5000), two PEG molecules coupled; control (GGTYSCHFGPLTWVCKPQGG-NH2; disulfide 6-15 (inferred); not fully specified; also: two mPEG 5000 (m-SPA-PEG) conjugated, sites not given here) [reference compound] | – |
